Experimental data taken from the RNAGym collection of RNA variant scans (doi:10.7554/elife.90254).

B1: LINE1-full (parent)
chain: UACGUAGGUGGUUUUCCCCUGAUAGUGCUAAGGGGGCCUGGAAGUUUGGACUGGGCAGAGCUCAACACAGCGUGGCAAAGUGGCUGUGGCUAGACUGCCUCUCUGGAUUCCUCGUCACUCAGCAGGGCAUCUCUGAGAGAAAUGCC

Variants of: B1
Assay: self-cleavage, relative activity (ratio to wild type); higher = more cleavage; in vitro, sequencing; the parent is a self-cleaving ribozyme

Variant	self-cleavage
U73A A121U	1.28
A57G C128A	0.12
A79G A124U	1.19
U15A U26C	0.86
G4A U26C	0.61
U20A U87G	0.21
A42U A124U	1.09
U23C U87A	0.06
U115C A141U	1.27
U20C G40A	1.1
G74U A117U	1.79
U23C U102C	1.33
A67C A117C	0.03
U14C U112C	1.19
U52C G60A	0.03
A24U C123U	1.02
G36A U62C	0.05
G27C U109C	0.92
A57G U115A	0.81
U47A A77G	2.01
A30G U119C	1.45
A78U C110U	1.28
U73G U108A	1.33
A69U A141G	0.07

Variant	self-cleavage
A67C U108C	0
U130C G144A	1.57
U96A U115A	0.08
G53A A57G	0.73
A43G C84U	0.16
G89U U109A	0.02
U12G A142C	0.93
G74U U112C	1.64
A22G G32U	0.6
U100G C116U	1.61
U12C A64C	0.7
A6G A31G	0.66
U115G A140G	2
A67G U96C	0
U45C G97A	0.07
G106U U134C	0.75
A79U A138G	1.76
G74U U102A	1.79
U109G C128U	1.17
U52C C84G	0
G53A U100C	1.09
U119A G122C	1.65
G21A A65C	0.02
C56U A77G	0.16

Variant	self-cleavage
U39A A64U	0.47
A67U U130A	0.13
C76G C84A	0.14
A92U U143A	0.6
U23G U112C	1.07
C120U A129G	1.84
U85C C101A	0.12
A57C U132G	0
A78G G86A	0.05
A22C A42G	1.86
G4A G125A	0.86
A42G G125A	1.25
G34A A140U	1.29
G105C	1.59
A30G A140G	0.99
U15C C146U	1.57
U9A G70C	0.3
A77U G83A	0.74
U12C U100C	1.6
U9C A59U	0.72
A31G U96C	0.16
C3U U23A	0.71
U47C C111A	1.79
A42U A107G	1.25

Variant	self-cleavage
U45C G58A	0.04
U5C A138U	1.58
A77G G83U	1.28
G4C A65G	0.08
U14A U29A	1.51
A142C U143A	1.41
U20C U130G	1.63
C61U U102C	0.03
A57G U119C	1.4
U47C U62A	0.04
U5C U13C	0.87
U14C C51U	0.71
U115G G125U	0.54
U85C A117G	0.15
A67U A69U	0.04
A57G A124U	0.76
C66G A117G	0.08
C99U U134A	0.37
U96G G137A	0.08
C18U A67G	0.44
A79G U85C	0.11
A43G G126A	1.16
A57U C99U	0.04
A22G U81C	1.18

Variant	self-cleavage
A121G G127A	1.74
U62G U104C	0.08
U23C G127C	1.12
A57G C120U	1.54
G34C U130C	0.88
C3U A140G	0.97
U12G U85C	0.4
A43U U130C	2.34
A121U A142U	1.03
A22G A124U	0.8
G36C U96C	0.17
U45C C99U	1.07
U9A U45C	0.91
U14C C146U	1.32
U62C C71U	0.05
A69G A142U	0.35
U47C C84U	0.38
A78C U100C	2.41
G55C U108C	0.18
A2G G54A	0.27
C16U C131U	1.8
A124G G126A	1.22
U26A A64G	0.2
U73C U104C	0.94

Variant	self-cleavage
G60U A65U	0.02
U13C A78G	0.99
A50U A59U	0.67
U108C C123U	2.22
A42G A129C	2.1
A94G U132C	0.34
C37U A124G	0.59
U12C G75A	1.46
U87C C118U	0.22
U26A C103U	0.98
G35A A57U	0.05
A78G A117U	1.6
A2G C38A	1.05
U23C U96A	0.12
U45A U73A	1.91
A30G A107U	1.71
U46A G70A	0.24
A67G U130A	0.54
U46C G48C	1.2
A24G U102G	0.54
U12C G127C	1.84
U13C A77G	1.85
C28U A57U	0.11
A6G C111U	1

Variant	self-cleavage
G32A U130C	1.26
A77U U109G	0.61
C38A U39C	1.77
A59G A65U	0.08
U102A U115A	1.43
U12C U20C	1.24
G82A G114U	2.07
U81C G83A	1.46
G114A U132A	1.64
U1C G106A	0.73
U14C A64U	0.46
U29A U134C	0.87
U12A G49A	1.05
G53A A67G	0.38
A43G A117C	1.85
A64G U132C	0.39
U15G A69G	0.95
C38A A64G	0.18
A24G A67G	0.45
G35C U91C	0.81
A42G A117U	1.33
A57U U85C	0.06
G88A G97A	0.04
U9C A142G	1.24

Variant	self-cleavage
A77U A121U	1.27
A30C U112C	1.33
C16A C38U	1.45
U81C A138G	1.14
C28U G89U	0.06
C63G	0.09
C63U	0.36
U1A G72A	1.55
C113U A136U	1.75
A94G U104A	0.22
A79G A94U	0.26
U13C	1.15
U29C U104A	1.12
G126C A140G	2.25
A24U U115C	1.92
A57G G139A	0.75
U15G G144A	0.82
U29C A42G	1.66
U87C A142C	0.24
A43G U52C	1.13
U1C U104A	0.75
U45C C128U	1.32
A67U C84U	0.02
G34U A140G	1.67

Variant	self-cleavage
A50G U73A	0.78
U52A G72A	1.55
A94G U130C	0.36
U81C U102C	0.72
U14C C90U	0.01
G72A U109A	1.37
A57G U102G	0.19
A6G G7A	0.43
U45A U85C	0.24
U52C U112C	1.5
U73C G75U	0.78
U20A U108C	1.95
U9G A141U	0.52
A69G A121U	0.62
U20C U39G	0.8
A6U A142C	0.28
U23A U39C	0.65
U52C G53A	0.6
A129G U130A	1.19
U9C C61U	0.08
A64C A69G	0.35
C19U U39C	0.65
U12C A57U	0.22
U39C G58U	0.03

Variant	self-cleavage
A59G C133G	0.12
A50G A107U	1.24
C63U U109A	0.12
G58U A124C	0.03
A59C U102C	2.07
U45C U108A	1.15
G34A U47C	1.18
U26C U109C	1.74
U47A G88A	0.01
U52A G82A	1.63
U1A A124G	1.16
A42U A138G	1.28
U1C A43U	0.75
C18U A22U	0.9
U15C C56U	0.23
C68U A140G	0.16
U45C U102C	1.55
U15C C128U	1.1
G33U A43G	0.64
A67G A129U	0.04
G72A G83A	1.53
U96C G126A	0.15
A31U G88U	0.15
U12C G35A	1.62

Variant	self-cleavage
U23A U100C	1.26
C63U U104C	0.1
U87C U134A	0.18
A107C A129U	2.42
U26A C66A	0.05
A30U A69U	0.1
U13A G125A	0.72
A43G U46C	0.53
G33A U46C	1.12
G55A A57G	0.15
G105U A107C	2.34
U5C U15A	0.63
G86A C110U	0.09
A64U U87A	0.06
U73A A129U	1.7
A65U C76U	0.22
A77U A141C	1.32
U20G A129C	1.95
A2G G53A	0.74
A2G A92C	0.13
U14A U46C	1.17
C18A C123U	1.31
U73C C113A	1.4
G27A A69C	0.11

Variant	self-cleavage
A57G U73A	0.37
C16A A79G	0.62
U15C A124G	1.39
A67G A107U	0.92
U52C A77U	1.07
U14A U132C	1.35
A30G A77U	0.71
U14C U23G	0.93
U96C U108A	0.09
A129G G139A	1.43
U102C C133U	0.47
U39C U134G	1.39
G48A G144U	1.46
A2G U45A	0.63
G106A A121G	1.78
A43C A94G	0.66
U23A U102A	1.18
U46C U87A	0.13
G11A A124U	1.43
C68U A77G	0.24
U29A G44A	0.61
U26A U91C	0.32
U29C C63U	0.48
U20A A124U	0.91

Variant	self-cleavage
U13A A42G	1.26
U23C U45G	1.02
G7U U13A	0.71
U29C A59U	1.13
U29C A59G	0.16
G7A U47C	1.21
G40U A43G	1.11
A43G A64U	0.4
G27C A117G	0.95
A57U A69U	0
A79C U100C	2.76
G126A U134C	1.58
C95U U130C	0.21
U26G U130A	0.79
G72A A141U	1.42
G75A U100C	1.5
U5A A78U	1.89
G72A A94G	0.33
A94U U132C	0.52
G35A	1.1
A6U G55U	0.4
A43U A138G	0.83
U13C A31U	1.1
G127A U143C	2.07

Variant	self-cleavage
U9G A77U	1.44
A117G U143A	0.83
G54A G75C	0.33
C71A A117G	0.15
U13G A94G	0.37
G36A U119C	2.42
U12C A141G	1.5
C18A A77U	0.97
U52C A78U	1.56
G7C U143C	1.93
G54C C61U	0.05
G10A C99A	0.42
C37U U108A	1.01
U104C G144U	2.06
U29A U132C	0.59
U20C G33A	0.99
A94G U100C	0.44
A94G U100A	0.21
A64G C133U	0.06
A79U A94U	0.25
G33A A59U	0.65
U81A C103A	1.98
